Test system: T3 receptor (thyroid hormone receptor, GC2 pituitary cell nuclear extract) (Rattus norvegicus)
Assay: pulldown
Conditions: equilibrium binding constant printed as 1.4x10^-9 M, ABCD assay, poly(dI-dC), 22 C, data not shown

G209-146 rat GH enhancer probe
Kd: 1.4 nM
